Experiments:
ASH2L, Q9UBL3-3 [1] = target: ASH2L, Q9UBL3-3
ASH2L, Q9UBL3-3 [2] = target: ASH2L, Q9UBL3-3; remark: listed apart in the source

ASH2L, Q9UBL3-3, sequence (Q9UBL3 95-628): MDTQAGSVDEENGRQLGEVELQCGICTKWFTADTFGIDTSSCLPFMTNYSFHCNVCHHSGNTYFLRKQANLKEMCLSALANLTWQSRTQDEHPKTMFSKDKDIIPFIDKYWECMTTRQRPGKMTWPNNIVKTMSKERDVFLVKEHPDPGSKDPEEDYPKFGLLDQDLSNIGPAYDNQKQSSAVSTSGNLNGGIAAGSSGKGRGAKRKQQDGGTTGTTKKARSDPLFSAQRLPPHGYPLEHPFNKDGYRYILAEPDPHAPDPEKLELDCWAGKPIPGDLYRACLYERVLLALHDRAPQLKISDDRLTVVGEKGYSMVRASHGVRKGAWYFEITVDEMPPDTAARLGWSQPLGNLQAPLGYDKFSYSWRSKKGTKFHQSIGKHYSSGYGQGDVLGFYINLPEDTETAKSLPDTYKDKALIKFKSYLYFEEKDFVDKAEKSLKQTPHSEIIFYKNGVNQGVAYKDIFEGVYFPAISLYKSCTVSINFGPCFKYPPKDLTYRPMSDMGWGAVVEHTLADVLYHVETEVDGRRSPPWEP

Row | effect of a mutation on the interaction (ASH2L, Q9UBL3-3 [1]) | effect of a mutation on the interaction (ASH2L, Q9UBL3-3 [2]) | Substance
1 | disrupting interaction strength | – | Histone-lysine N-methyltransferase 2B (Homo sapiens), Q9UMN6 R2610A
2 | – | disrupting interaction strength | Histone-lysine N-methyltransferase 2C (Homo sapiens), Q8NEZ4 R4806A
